Assay results from US20150351390A1, “COMPOSITIONS AND METHODS FOR AUXIN-ANALOG CONJUGATION” (PIONEER HI-BRED INTERNATIONAL, INC., priority 2012, published 2015).

B1: ZmACI46149: GH3 protein, accession ACI46149 (protein)
chain: MAVMAEVVSTTGAALRSPASQQPAAAGAAKGTDAEKLQFIEDMTSNVDAVQERVLGEILARNADTEYLAGRCGLAGATDRATFRAKVPMATYEDLQPYIRRIADGDRSPILSGHPVSEFLTSSGTSGGERKLMPTIEDELNRRQLLYSLQMPVMNLYVPGMDKGKALHFLFVKSETKTPGGLAARPVLTSYYKSNHFRNRPFDAYNNYTSPTAAILCADAFQSMYAQMVCGLCQRQDVLRVGAVFASGLLRAIRFLQLNWEQLADDIEAGSLTPRVTDPSVREAVAGILRPDPAVAELVRSECSGGDWAGIVTRIWPNTKYLDVIVTGAMAQYIPTLKHYSGGLPMACTMYASSECYFGLNLRPMCDPSEVSYTLMPNMCYFEFLPMGGAVDASQLVDLARVERGREYELVITTYAGLNRYRVGDVLQVTGFHNSAPQFRFVRRKNVLLSIESDKTDEAELQRAVERASALLRPHGAAVVEYTSQAYTKSIPGHYVVYWELLQAKGGAAVDGETLEGCCLEMEEALNAVYRQSRVADGSIGPLEIRVVRPGTFEELMDYAISRGASINQYKVPRCVTFPPIIELLDSRVVSSHLSPALPHWTAGQRSDSD
modifications: Zea mays
B2: ZmACN32133: GH3 protein, accession ACN32133 (protein)
chain: MAPTTATAAAVGTKATALGVAACERDVEKLEFIEDKTRNFDAEQVRVLAEILARNNGAEYLRRHGMEGRTDRLAFKACVPVVTYEDLRPEIERIANGDRSNIISSHPITEFLTSSGTSAGERKLMPTIEDELNRRQMLYSLLMPVMNLYVPGLDKGKGLYFLFIKSETKTPGGLPARPVLTSYYKSDHFKHRPYDPYNVYTSPTAAILCTDSFQSMYSQMLCGLVARAEVLRVGAVFASGLLRAIRFLQLHWQELAHDLRTGTLSAKVTEPSIREAVAEVLRPDAGLADLVEAECGKESWEGIITRVWPNTKYLDVIVTGAMAQYIPTLKYYSGGLPMACTMYASSECYFGLNLRPMCDPSEVSYTIMPNMGYFELLPHDPDAVPPSRDDPPPRLLDLADAEVGRDYELVITTYAGLCRYRVGDILHVTGFHNAAPQFRFVRRKNVLLSVDSDKTDEAELQAAVERAARLLAPYDAAIAEYTSQADATTIPGHYVVYWELMVREGGASPDAAVFERCCLEMEEALNAVYRQGRNGDAIGPLEIRVVRGGTFEEVMDYAISRGASINQYKAPRCVSFGPIIELLNSRVVSSHFSPACPTYSPHKK
modifications: Zea mays
B3: SbEES19769: GH3 protein, accession EES19769 (protein)
chain: MPEAPVTTMREAATAAAAAAVPETHRELLEYIERVTAGAAQVQRRVLAEILAQNAPAEYLRRLGVAGDAPGAVDAFRRAAPLVTYEDILPDVLRIANGDTSPILSGKPIREFLTSSGTSGGERKLMPAIADEMDRRSLLYSLLMPVMSQAVPGLDKGKCMYLYFVKAESRTPGGHPARPVLTSFYRSRHFLERPHDPYTVYTSPDEAILCVDAYQSMYAQLLCGLVHRADVLRVGAVFASGFLRAIRFLEKHWQRLCRDIRTGTLDAEAVTDRAVRAAVEQRVLLRADPALADAVEAECARTSWQGIIRRVWPNTKYIDVIVTGAMAQYIPQLEFYGGGLPLTCTMYASSESYFGINLNPMCKPSEVAYTLIPTMCYFEFLPLPQPGDDDAGEPDQRDLVDLVDVKLGHEYELVVTTYSGLYRYRVGDVLRVAGFKNQAPMFNFLRRKNVVLSIDADKTDEAELHAAVSGAVQHLAPFGASLVEYTSYADAGTIPGHYVLFWELRLRAAAAAGATPTPVPASVFEDCCLAVEEALNSVYRQGRAADRSIGPLEIRVVSDGTFDKLMDYALARGASINQYKAPRCVRPGPVVELLDGRVQASYFSPKCPKWSPGVGKQWSSDAAAAAKKAAAGGSNGGGGGGGAVVVA
modifications: Sorghum bicolor
B4: SmXP_002973755: GH3 protein, accession XP_002973755 (protein, listed as Selaginella moellendorffii)
chain: MNLEHKEREKQALQFIEKVTSEAAEVQSAVLSAILERNAHTEYLKRHGLNGRTDKTSFRQCLPVITYEDLEPEIQRIANGDTSPILSAHPISEFLTSSGTSAGQRKLMPTISEEFERRCLLYSLLMPVMNQYLPGLDQGKGMYLFFIKSEAKTPGGLLARPVLTSYYKSRYFTERPYDPCNVYTSPNETVLCPDAHQSMYCQLLCGLLQRHEVLRMGAVFASGFLRAIRFLETHWRELCDDIRAGGLNELVVDAAARRAVLALMPRPDPALADDIAEQCRKESWAGIIARLWPNTKYIDVIVTGTMAQYIPTLDYYSGGLPLVCTMYASSECYFGINLQPLCPPSEVSYTLLPNMAYFEFLPIKPKSGKSKAPRVPDPSELVELVDVKMGHEYELVITTYAGLCRYRVGDILRVTGFHNSAPQFAFVCRKNVVLSIDSDKTGEEDLAKAVRSATAGIESSYGARLIEYTSYADTTTIPGHYVLFWELRSSSPIPKDVLEECCLAIEESLDSVYRQGRVSDRSIGPLEIKVVKPGTFDQLMDYALSRGASINQYKTPRCVKFTPIVELLNARVVSSYFSPRLPKWSPVRPQWANSNGVH
B5: ZmACI46148: GH3 protein, accession ACI46148 (protein)
chain: MAVMAEVVSTTGAALRSPASQPLPAAVKNADAEKLQFIEEMTSNVDAVQERVLGEILARNAGTEYLAKYGLAAATTDRATFRAKVPMATYEDLQPYIRRIADGDRSPILSGHPVSEFLTSSGTSAGERKLMPTIEDELNRRQLLYSLQMPVMNLYVPGMDKGKALHFLFVKSETKTPGGLAARPVLTSYYKSNHFKNRPFDAYNNYTSPTAAILCADAFQSMYAQMLCGLCQRQDVLRVGAVFASGLLRAIRFLQLNWEQLAEDIEAGSLTPRVTDPSVREAVAGILRADPELAALVRSECSKGDWAGIITRIWPSTKYLDVIVTGAMAQYIPTLKYYSGGLPMACTMYASSECYFGLNLRPMCDPSEVSYTLMPNMCYFEFLPMDSAAASGGDASKLVDLARVEVGREYELVITTYAGLNRYRVGDVLQVTGFHNTAPQFRFVRRKNVLLSIESDKTDEAELQRAVERASALLRPHGAAVVEYTSQAYTKSIPGHYVIYWELLAKGPAGGAAVGEGTLERCCLEMEEALNTVYRQSRVADGSIGPLEIRVVRPGTFEELMDYAISRGASINQYKVPRCVTFPPIIELLDSRVVSSHFSPALPHWTPGQRSDSD
modifications: Zea mays
B6: ZmACL54563: GH3 protein, accession ACL54563 (protein)
chain: MPEAPVVTMRDTAAAAPPATHRDLLEYIERVTAGAAQVQRRVLSEILAQNAPAEYLRRLGVSGAAPGAVEAFRRAAPLVTYEDILPDVLRIANGDTSPILSGKPIREFLTSSGTSGGERKLMPAIADEMDRRSLLYSLLMPVMSQAVPGLDRGRCMYLYFVKAGSRTPGGHPARPVLTSFYRSRHFLERPHDPYTVHTSPDEAVLCVDAYQSMYAQLLCGLVHRADVLRVGAVFASGFLRAIRFLEKHWQRLCRDLRRGALGAEVTDRSVRAAVARVLRADPALADAVEAECARPSWQGIIRRVWPGTKYIDVIVTGAMAQYIPTLEFYGGGLPLTCTMYASSESYFGINLNPMCKPSEVAYTLIPTMCYFEFLPLPQPGPGGTDDADPDHRDLVDLVDVKLGHEYELVVTTYSGLYRYRVGDVLRVAGFKNQAPMFKFLRRKNVVLSIDSDKTDEAELHAAVSGAVQHLAPFGASLVEYTSYADAGTIPGHYVLFWELRLRAGDVPVPVPASVFEDCCLAVEEALNSVYRQGRAADRSIGPLEIRVVSDGTFDRLMDYALARGASINQYKVPRCVHPGPVVELLDGRVQASYVSPKCPKWSPGGGKQWSSDAAAKKPAAAAGSNNGGGAVVA
modifications: Zea mays
B7: ZmACL52529: GH3 protein, accession ACL52529 (protein)
chain: MSTSHARVKSDSNNGRTRTCDDGGSSGTSGGERKLMPAIADEMDRRSLLYSLLMPVMSQAVPGLDRGRCMYLYFVKAESRTPGGHPARPVLTSFYRSRHFLERPHDPYTVHTSPDEAVLCVDAYQSMYAQLLCGLVHRADVLRVGAVFASGFLRAIRFLEKHWQRLCRDLRRGALGAEVTDRSVRAAVARVLRADPALADAVEAECARPSWQGIIRRVWPGTKYIDVIVTGAMAQYIPTLEFYGGGLPLTCTMYASSESYFGINLNPMCKPSEVAYTLIPTMCYFEFLPLPQPGPGGTDDADPDHRDLVDLVDVKLGHEYELVVTTYSGLYRYRVGDVLRVAGFKNQAPMFKFLRRKNVVLSIDSDKTDEAELHAAVSGAVQHLAPFGASLVEYTSYADAGTIPGHYVLFWELRLRAGDVPVPVPASVFEDCCLAVEEALNSVYRQGRAADRSIGPLEIRVVSDGTFDRLMDYALARGASINQYKVPRCVHPGPVVELLDGRVQASYVSPKCPKWSPGGGKQWSSDAAAKKPAAAAGSNNGGGAVVA
modifications: Zea mays

Assay: LC-MS assay of GH3 conjugation of IAA with Asp or Glu
Type: biochemical
Conditions: conjugation of IAA with Asp by recombinant GH3 protein; IAA-Asp product by LC-MS
Outline: (§1)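 N-His-tagged GH3 homologs expressed in E. coli C41(DE3) and Ni-NTA purified (44 to 164 μg/mL) were incubated 3 hours at 30° C. in 20 mM Tris-HCl pH 8.0, 5 mM MgCl2, 1 mM DTT with 5 mM each of auxin, ATP and Asp or Glu. Conjugates were quantified by LC-MS against standards.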

Row | Molecule | kcat (hrs−1) IAA-Asp
1 | B1 | 684.072 h⁻¹
2 | B2 | 876.059 h⁻¹
3 | B3 | 903.124 h⁻¹
4 | B4 | 220.320 h⁻¹
5 | B5 | 869.016 h⁻¹
6 | B6 | 522.629 h⁻¹
7 | B7 | 0.000 h⁻¹

Same assay, conditions: conjugation of IAA with Glu by recombinant GH3 protein; IAA-Glu product by LC-MS

Row | Molecule | kcat (hrs−1) IAA-Glu
8 | B1 | 26.467 h⁻¹
9 | B2 | 83.547 h⁻¹
10 | B3 | 50.990 h⁻¹
11 | B4 | 9.285 h⁻¹
12 | B5 | 49.496 h⁻¹
13 | B6 | 26.015 h⁻¹
14 | B7 | 2.149 h⁻¹

Assay: LC-MS assay of GH3 conjugation of 2,4-D with Asp or Glu
Type: biochemical
Conditions: conjugation of 2,4-D with Asp by recombinant GH3 protein; 2,4-D-Asp product by LC-MS; 5 mM 2,4-D substrate
Outline: as §1

Row | Molecule | kcat (hrs−1) 2,4-D-Asp
15 | B1 | 2.892 h⁻¹
16 | B2 | 0.602 h⁻¹
17 | B3 | 18.287 h⁻¹
18 | B4 | 1.076 h⁻¹
19 | B5 | 2.278 h⁻¹
20 | B6 | 3.255 h⁻¹
21 | B7 | 0.000 h⁻¹

Same assay, conditions: conjugation of 2,4-D with Glu by recombinant GH3 protein; 2,4-D-Glu product by LC-MS; 5 mM 2,4-D substrate

Row | Molecule | kcat (hrs−1) 2,4-D-Glu
22 | B1 | 0.355 h⁻¹
23 | B2 | 0.241 h⁻¹
24 | B3 | 4.970 h⁻¹
25 | B4 | 0.431 h⁻¹
26 | B5 | 0.401 h⁻¹
27 | B6 | 0.993 h⁻¹
28 | B7 | 0.000 h⁻¹
